In IntAct's records for PubMed 19617556:

B1: DCN1-like protein 3 (Homo sapiens), Q8IWE4 (parent)
chain: MGQCVTKCKNPSSTLGSKNGDREPSNKSHSRRGAGHREEQVPPCGKPGGDILVNGTKKAEAATEACQLPTSSGDAGRESKSNAEESSLQRLEELFRRYKDEREDAILEEGMERFCNDLCVDPTEFRVLLLAWKFQAATMCKFTRKEFFDGCKAISADSIDGICARFPSLLTEAKQEDKFKDLYRFTFQFGLDSEEGQRSLHREIAIALWKLVFTQNNPPVLDQWLNFLTENPSGIKGISRDTWNMFLNFTQVIGPDLSNYSEDEAWPSLFDTFVEWEMERRKREGEGRGALSSGPEGLCPEEQT

Variants of: B1
Conditions: with cul3_human CUL3, Q13618

Row | Variant | effect of a mutation on the interaction
1 | MGQCVTKCKNPSSTLGSKNGDREPSNKSHSRRGAGHREEQVPPCGKPGGDILVNGTKKAEAATEACQLPTSSGDAGRESKSNAEESSLQRLEELFRRYKDEREDAILEEGMERFCNDLCVDPTEFRVLLLAWKFQAATMCKFTRKEFFDGCKAISADSIDGICARFPSLLTEAKQEDKFKDLYRFTFQFGLDSEEGQRSLHREIAIALWKLVFTQNNPPVLDQWLNFLTENPSGIKGISRATWNMFLNFTQVIGPDLSNYSEDERWPSLFATFVEWEMERRKREGEGRGALSSGPEGLCPEEQT [D241A;A265R;D271A] | disrupting interaction strength
